B1: Ribose import binding protein RbsB, P02925 (parent)
chain: MNMKKLATLVSAVALSATVSANAMAKDTIALVVSTLNNPFFVSLKDGAQKEADKLGYNLVVLDSQNNPAKELANVQDLTVRGTKILLINPTDSDAVGNAVKMANQANIPVITLDRQATKGEVVSHIASDNVLGGKIAGDYIAKKAGEGAKVIELQGIAGTSAARERGEGFQQAVAAHKFNVLASQPADFDRIKGLNVMQNLLTAHPDVQAVFAQNDEMALGALRALQTAGKSDVMVVGFDGTPDGEKAVNDGKLAATIAQLPDQIGAKGVETADKVLKGEKVQAKYPVDLKLVVKQ

Variants of: B1
Settings: Escherichia coli (strain K12), pH 7.6, Thermal, MOPS 25 mM, Potassium chloride 100 mM, structure 2DRI, whole UniProt chain shown
[1] = 25 °C, Quantitative cysteine reactivity
[2] = Quantitative cysteine reactivity

Variant | ddG of mutation (higher = less stable) (25 °C, Activity) | unfolding enthalpy (van 't Hoff) (25 °C, Activity) | unfolding free energy (25 °C, Activity) | unfolding enthalpy (van 't Hoff) [1] | unfolding free energy [1] | Tm (Activity) | change of melting temperature, mutant - wild type (higher = more stable) (Activity) | Tm [2] | change of melting temperature, mutant - wild type (higher = more stable) [2]
MNMKKLATLVSAVALSATVSANAMAKDTIALVVSTLNNPFFVSLKDGAQKEADKLGYNLVVLDSQNNPAKELANVQDLTVRGTKILCINPTDSDAVGNAVKMANQANIPVITLDRQATKGEVVSHIASDNVLGGKIAGDYIAKKAGEGAKVIELQGIAGTSAARERGEGFQQAVAAHKFNVLASQPADFDRIKGLNVMQNLLTAHPDVQAVFAQNDEMALGALRALQTAGKSDVMVVGFDGTPDGEKAVNDGKLAATIAQLPDQIGAKGVETADKVLKGEKVQAKYPVDLKLVVKQ [L87C] | 2.7 kcal/mol | 81 kcal/mol | 3.2 kcal/mol | 81 kcal/mol | 3.2 kcal/mol | 54 °C | -8.6 °C | 54 °C | -8.6 °C
MNMKKLATLVSAVALSATVSANAMAKDTIALVVSTLNNPFFVSLKDGAQKEADKLGYNLVVLDSQNNPAKELANVQDLTVRGTKILLINPTDSDAVGNAVKMANQANIPVITLDRQATKGEVVSHIASDNVLGGKIAGDYIAKKAGEGAKVIELQGIAGTSAARERGEGFQQAVAAHKFNVLASQPADFDRIKGLNVMQNLLTAHPDVQAVFCQNDEMALGALRALQTAGKSDVMVVGFDGTPDGEKAVNDGKLAATIAQLPDQIGAKGVETADKVLKGEKVQAKYPVDLKLVVKQ [A213C] |  |  |  | 91 kcal/mol | 4.1 kcal/mol | 56 °C | -6.6 °C | 56 °C | -6.6 °C

From FireProtDB (doi:10.1073/pnas.0910421107)
